These results are taken from patent US20120277143A1 (Janssen / Centocor, published 2012).

In assay [1] the target is T1, human IL4 (human, UniProt P05112 25-153, biotinylated in the SPR and competition assays (sites not given)).
T1 sequence: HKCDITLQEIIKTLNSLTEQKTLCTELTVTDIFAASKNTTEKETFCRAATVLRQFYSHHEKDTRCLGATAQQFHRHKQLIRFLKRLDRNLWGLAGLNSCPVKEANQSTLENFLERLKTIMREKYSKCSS
Briefly: cell-based or functional assay.

The target of assay [2] is T1, human IL4. Briefly: binding to recombinant IL4; kinetic method not restated.
Assay [3] addresses T2, human IL13 (human, UniProt P35225 35-146, biotinylated in the SPR assays (sites not given)). Briefly: cell-based or functional assay.
A further assay has as its target cyno IL13 (cynomolgus monkey, UniProt Q0PW92 21-132). Briefly: cell-based or functional assay.
The target of assay [4] is T2, human IL13. Briefly: cell-based or functional assay. This is another data set of the same source.
Assay [5] concerns the target T2, human IL13. Briefly: SPR BIAcore, biotin-IL13 on SA chip, global fit. Here is the method:
Recombinant human IL13 (Peprotech) was minimally biotinylated on ice using sulfo-NHS-LCLC-Biotin and desalted into the experimental running buffer containing 10 mM HEPES, 150 mM NaCl, pH 7.4, 0.01% Tween-20, and 0.1 mg/mL BSA. Biotinylated IL13 was captured at three different surface densities (from about 150, 50, and 25 RU) onto three different BIAcore SA (streptavidin) sensor chips. Each binding protein sample was tested at 40 nM as the highest concentration in a 3-fold dilution series over the three different density IL13 surfaces. The dissociation phase for the highest concentration of the binding protein sample was monitored for one hour. The response data from each of the different density surfaces was globally fitted in order to extract estimates of the kinetic and affinity constants which are provided in Table 7 below.

Assay [6] concerns the target T2, human IL13. Briefly: SPR ProteOn, biotin-hIL13 on streptavidin, 1:1 global fit. Here is the method: Complete kinetic data describing binding of various engineered binding protein molecules to human IL13 was measured using a method similar to that described above for the single point affinity analysis. Briefly, streptavidin (Pierce) was immobilized to similar levels (˜1800 RUs) on all six channels of a ProteOn GLC chip via amine coupling (pH 5.0). Biotinylated hIL13 was captured at different surface densities (600˜100 RUs) on different channels. Protein binding was tested starting at 40 nM diluted in a 3-fold concentration series over the different density IL13 surfaces; a buffer sample was injected to monitor the baseline stability. Dissociation phases for all concentrations of each binding protein sample were monitored for one hour at a flow rate of 100 μl/min. Response data for all concentration series from the different density surfaces were globally fit to a 1:1 simple langmuir binding model to extract values of the kinetic (kₒₙ, koff) and affinity (KD) constants provided in Table 16.

For assay [7], the target named is T3, human IL13 R130Q (human, UniProt P35225 35-146, biotinylated (sites not given)).
T3 construct: Peprotech; also called IL13R13Q; R111Q
T3 sequence (P35225 35-146 limits assumed, stated change not applied): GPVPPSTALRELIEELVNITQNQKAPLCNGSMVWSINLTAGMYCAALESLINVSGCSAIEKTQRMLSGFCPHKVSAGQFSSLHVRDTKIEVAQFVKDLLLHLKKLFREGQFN
Briefly: Luminex competition, 80 pM biotin-IL13 R130Q binding to IL13Ra2-Fc beads. The protocol:
(§1) Binding protein inhibition of IL13 binding to Rα2 was assessed using IL13Rα2-Fc (R&D Systems) conjugated to carboxylated Luminex microspheres according to the manufacturer's protocol. For biotinylation of IL13, recombinant human IL13 R130Q (Peprotech) was biotinylated at a 4:1 ratio using EZ-Link NHS-LC-Biotin (Pierce, #21336) for 2 hours at RT. The protein was dialyzed in PBS overnight to remove excess biotinylation reagent. For neutralization experiments, 5000 IL13 Rα2-Fc conjugated beads in 50 μl were added to each well of a 96-well filter plate (Millipore). 50 μl of biotinylated human IL13 at 1 ng/ml (80 pM) was mixed with an appropriate dilution of binding protein in Luminex Assay Buffer (PBS, 1% BSA, pH 7.4). The plate was incubated for 1 hour at RT in the dark on a plate shaker, set to shake vigorously to avoid bead aggregation. The plate was washed 3 times with 150 μl of wash buffer (PBS, 1% BSA, pH 7.4, 0.05% Tween-20) using a vacuum manifold followed by the addition of 50 μl of Streptavidin PE at 25 μg/ml and incubated at RT for 20 minutes. The plates were washed again and 100 μl of sheath fluid was added and the plate was placed on the shaker for 1 minute. Plates were read using a Luminex® 100 system; data were plotted as a function of binding protein concentration. IC₅₀ values were determined by fitting the data to the equation for sigmoidal dose response using PRIZM software (GraphPAD PRIZM).

The target in assay [8] is T2, human IL13. Briefly: cell-based or functional assay. The source holds these as a separate data set.
The target in assay [9] is T1, human IL4. Briefly: cell-based or functional assay. This is another data set of the same source.
For assay [10], the target named is T1, human IL4. Briefly: Affinity to IL4; method not re-described.
Assay [11] has as its target T2, human IL13. Briefly: Affinity to IL13; method not re-described.
Assay [12] addresses T1, human IL4. Briefly: IL4R binding inhibition; repeats Table 17. The protocol: AR protein inhibition of IL4 binding to IL4 RA was assessed using IL4 RA-Fc (R&D Systems), comprising the Gly24-His232 which represents the ECD (SEQ ID NO: 5) fused to a human IgGl-Fc and therefor a disulfide linked homodimer. The protein was conjugated to carboxylated Luminex microspheres according to the manufacturer's protocol. For neutralization experiments, 5000 IL4RA-Fc conjugated beads in 50 μl were added to each well of a 96-well filter plate (Millipore). Biotinylated human IL4 was mixed with an appropriate dilution of AR protein in Luminex Assay Buffer (PBS, 1% BSA, pH 7.4) to give a final concentration of 67 pM IL4. The plate was incubated for 1 hour at RT in the dark on a plate shaker, set to shake vigorously to avoid bead aggregation. The plate was washed twice with 150 μl of wash buffer (PBS, 0.1% BSA, pH 7.4, 0.05% Tween-20) using a vacuum manifold followed by the addition of 50 μl of Streptavidin PE at 25 μg/ml and incubated at RT for 20 minutes. The plates were washed again and 150 μl of sheath fluid was added and the plate was placed on the shaker for 5 minute. Plates were read using a Luminex® 100 system; data were plotted as a function of AR protein concentration. IC₅₀ values were determined by fitting the data to the equation for sigmoidal dose response using PRISM software (GraphPAD PRISM) (Table 6).

In assay [13] the target is T3, human IL13 R130Q. Briefly: IL13Ra2 binding inhibition; repeats Table 17. Here is the method:
as §1

For assay [14], the target named is T1, human IL4. Briefly: IL4RA binding inhibition; assay not re-described (Luminex of Example 2).
Assay [15] has as its target T3, human IL13 R130Q. Briefly: IL13Ra2 binding inhibition; assay not re-described (Luminex of Example 2). Here is the method:
as §1

Changes are numbered by the printed parent chain.

T2 sequence (P35225 other isoform, or with tags, fused parts or gaps limits assumed): as the sequence (P35225 35-146 limits assumed, stated change not applied) above, with Q110R counted along it
Chain of cyno IL13 (Q0PW92 entry or part of it): as the sequence (P35225 35-146 limits assumed, stated change not applied) above, with G1S, R10K, M42V, S67N, H83R, L100V counted along it

B1: C06_28E5v1 (designed binder)
chain: DLGKKLLEAARAGQDDEVRILMANGADVNAADDSGITPLHLAAEDGHLEIVEVLLKAGADVNAQDNLGDTPLHLAAWTGHLEIVEVLLKAGADVNAYDISGITPLHLAAFYGHLEIVEVLLKHGADVNAQDKFGKTAFDISIDNGNEDLAEILQKLN
As usually defined, the Kd is the equilibrium constant for the complex coming apart. On to B1, for which the “IC50 STAT6” value with human IL4 [1] worked out at 3.1 pM. For the same molecule, the Kd with human IL4 [2] came out at 8.38 pM.

B2: IL13 binding protein 6G9 (designed binder)
chain: DLGKKLLEAARAGQDDEVRILMANGADVNARDSYGSTPLHLAAREGHLEIVEVLLKYGADVNAKDMIGDTPLHLAAYRGHLEIVEVLLKNGADVNASDITGETPLHLAAQIGHLEIVEVLLKYGADVNAQDKFGKTAFDISIDNGNEDLAEILQKLN
One may read the koff as the first-order rate constant of dissociation. Read a low koff as slow dissociation. The term kon denotes the second-order rate constant of association. A high value points to faster complex formation. One may read the IC50 as the concentration that inhibits the measured activity by half. Read a low IC50 as higher potency. Take B2: in the assay with human IL13 [3], the “STAT6 Phospho IC50” value was 17.4 pM and the “TARC expression IC50” value was determined as 64 pM. In addition, in the assay with cyno IL13, the “Cyno IL13 STAT6 IC50” value came out at 96.4 pM. The “HEK STAT6 IC50” value in the assay with human IL13 [4] worked out at 17.4 pM. In the assay with human IL13 [5], this molecule returned a Kd of 57.7 pM, a koff of 5.74e-05 s⁻¹ and a kon of 995000 M⁻¹ s⁻¹. The Kd with human IL13 [6] came out at 24.9 pM. This molecule gave an IC50 in the assay with human IL13 R130Q [7] of 31 pM.

B3: 6G9r13 (designed binder)
chain: B2 chain with D1A, G3D, K64A, M66F, N90Y, Y123H, L156A, N157A
notes: optimized 6G9; expressed without HIS tag
B3: the “HEK STAT6 IC50” value with human IL13 [4] came to 5.6 pM. The molecule also gave a Kd in the assay with human IL13 [6] of 25.1 pM.

B4: C01_6G9_V1_C06_28E5_V1 (designed binder)
chain: DLDKKLLEAARAGQDDEVRILMANGADVNARDSYGSTPLHLAAREGHLEIVEVLLKYGADVNAADFIGDTPLHLAAYRGHLEIVEVLLKYGADVNASDITGETPLHLAAQIGHLEIVEVLLKHGADVNAQDKFGKTAFDISIDNGNEDLAEILQKLGGGGSGGGGSGGGGSGGGGSRSDLGKKLLEAARAGQDDEVRILMANGADVNAADDSGITPLHLAAEDGHLEIVEVLLKAGADVNAQDNLGDTPLHLAAWTGHLEIVEVLLKAGADVNAYDISGITPLHLAAFYGHLEIVEVLLKHGADVNAQDKFGKTAFDISIDNGNEDLAEILQKLN
notes: bispecific IL13/IL4 ankyrin repeat protein with (GGGGS)4 linker; also called bispecific AR protein
Consider B4, for which the “A549/TARC IL13 IC50” value with human IL13 [8] is 92 pM. The “HEK Stat6 human IL13 IC50” value with human IL13 [8] came out at 19 pM. Moreover, in the assay with human IL4 [9], the “A549/TARC IL4 IC50” value amounted to 33 pM. Besides, in the assay with human IL4 [9], the “HEK stat6 hIL4 IC50” value stood at 2 pM. Further, the “Ramos Assay IC50” value with human IL4 [9] came to 6.9 pM. Further, the values for the dissociation constant Kd with human IL4 [10] and with human IL13 [11] were 3.1 pM and 16.6 pM, respectively. In addition, the 50% inhibitory concentration (IC50) with human IL4 [12] came out at 24 pM; in the assay with human IL13 R130Q [13], 32 pM; with human IL4 [14] it was 24 pM; in the assay with human IL13 R130Q [15], 32 pM.

B5: C06_53G6_V1_C01_6G9_V1 (designed binder)
chain: DLGKKLLEAARAGQDDEVRILMANGADVNATDDWGDTLLHLAATDGHLEIVEVLLKAGADVNANDAIGDTPLHLAALYGHLEIVEVLLKYGADVNATDLHGFTPLHLAAFWGHLEIVEVLLKHGADVNAQDKFGKTAFDISIDNGNEDLAEILQKLNGGGGSGGGGSGGGGSGGGGSDLDKKLLEAARAGQDDEVRILMANGADVNARDSYGSTPLHLAAREGHLEIVEVLLKYGADVNAADFIGDTPLHLAAYRGHLEIVEVLLKYGADVNASDITGETPLHLAAQIGHLEIVEVLLKHGADVNAQDKFGKTAFDISIDNGNEDLAEILQKLN
notes: bispecific IL4/IL13 ankyrin repeat protein with (GGGGS)4 linker; also called bispecific AR protein
In the case of B5, the “A549/TARC IL13 IC50” value with human IL13 [8] was 131 pM. Besides, the “HEK Stat6 human IL13 IC50” value in the assay with human IL13 [8] turned out to be 27 pM. Also, the “A549/TARC IL4 IC50” value with human IL4 [9] was 50 pM. Also, the “HEK stat6 hIL4 IC50” value with human IL4 [9] stood at 3.9 pM. Further, the “Ramos Assay IC50” value with human IL4 [9] worked out at 8 pM. The equilibrium dissociation constant (Kd) with human IL4 [10] is 10.9 pM; with human IL13 [11] it was 38.4 pM. In addition, the IC50 in the assay with human IL4 [12] came to 34 pM; in the assay with human IL13 R130Q [13], 199 pM; with human IL4 [14], 34 pM; in the assay with human IL13 R130Q [15] it was 199 pM.

B6: 7G11 (designed binder)
chain: DLGKKLLEAARAGQDDEVRILMANGADVNATDEFDSTPLHLAARHGHLEIVEVLLKYGADVNAADFIGDTPLHLAAYRGHLEIVEVLLKCGVDVNADDHGDTPLHLAASMGHLEIVEVLLKNGADVNAQDKFGKTAFDISIDNGNEDLAEILQKLN
notes: ankyrin repeat protein
Turning to B6, in the assay with human IL13 [3], the “STAT6 Phospho IC50” value was determined as 2.5 pM and the “TARC expression IC50” value came to 19.6 pM. In addition, the “Cyno IL13 STAT6 IC50” value in the assay with cyno IL13 is 98 pM. Further, in the assay with human IL13 [4], the “HEK STAT6 IC50” value was 2.5 pM. In the assay with human IL13 [5], the affinity, expressed as Kd, was 32.8 pM; the off-rate (koff) turned out to be 5.3e-05 s⁻¹; the association rate constant (kon) is 1.62e+06 M⁻¹ s⁻¹. In the assay with human IL13 [6], this molecule gave an equilibrium dissociation constant (Kd) of 16.8 pM. Further, the IC50 in the assay with human IL13 R130Q [7] was found to be 3.4 pM.

B7: 7G11r7 (designed binder)
chain: B6 chain with D1G, G3D, C90Y, M110T, N122H, L155A, N156A
notes: optimized 7G11; expressed without HIS tag
For the molecule B7, the “HEK STAT6 IC50” value with human IL13 [4] came to 85 pM. Also, binding in the assay with human IL13 [6] was characterised by a dissociation constant (Kd) of 24.2 pM.

B8: 9F8r3 (designed binder)
chain: GLDKKLLEAARAGQDDEVRILMANGADVNASDIFGSTPLHLAARHGHLEIVEVLLKYGADVNAFDFIGDTPLHLAAYRGHLEIVEVLLKYGVDVNADDHGDTPLHLAAQIGHLEIVEVLLKHGADVNAQDKFGKTAFDISIDNGNEDLAEILQKAA
notes: optimized 9F8; expressed without HIS tag
As for B8, the “HEK STAT6 IC50” value with human IL13 [4] came to 202 pM. The dissociation constant Kd with human IL13 [6] is 65.6 pM.
